This passage reports Kd results from publication PMC9482655 (2022).

The target of assay [1] is IZUMO1 ectodomain, biotin-labelled, sensor-bound (human, UniProt Q8IYV9 22-292, biotin on free lysine residues (EZ link sulfo-NHS-LC-biotinylation kit, 1:1 protein to biotin ratio)). Briefly: BLI. A general note: BLI is a label-free optical method that tracks binding on a fibre tip over time.
For assay [2], the target named is JUNO ectodomain, biotin-labelled, sensor-bound (UniProt A6ND01 20-228, biotin on free lysine residues (EZ link sulfo-NHS-LC-biotinylation kit, 1:1 protein to biotin ratio)). Kind of assay: BLI.

B1: JUNO ectodomain (BLI analyte; target protein of the pull-down) (domain or fragment)
chain: GDELLNICMNAKHHKRVPSPEDKLYEECIPWKDNACCTLTTSWEAHLDVSPLYNFSLFHCGLLMPGCRKHFIQAICFYECSPNLGPWIQPVGSLGWEVAPSGQGERVVNVPLCQEDCEEWWEDCRMSYTCKSNWRGGWDWSQGKNRCPKGAQCLPFSHYFPTPADLCEKTWSNSFKASPERRNSGRCLQKWFEPAQGNPNVAVARLFAS
On to B1, for which, in assay [1], the Kd amounted to 14.2 nM.

B2: IZUMO1 ectodomain (BLI analyte) (domain or fragment)
chain: CVICDPSVVLALKSLEKDYLPGHLDAKHHKAMMERVENAVKDFQELSLNEDAYMGVVDEATLQKGSWSLLKDLKRITDSDVKGDLFVKELFWMLHLQKETFATYVARFQKEAYCPNKCGVMLQTLIWCKNCKKEVHACRKSYDCGERNVEVPQMEDMILDCELNWHQASEGLTDYSFYRVWGNNTETLVSKGKEATLTKPMVGPEDAGSYRCELGSVNSSPATIINFHVTVLPKMIKEEKPSPNIVTPGEATTESSISLQPLQPEKMLASR
In the case of B2, the Kd in assay [2] was 36.8 nM.

By Kd is commonly meant a measure of binding affinity in units of concentration.
